We go through 1 substance from article PMC6343935.

For the test, the target named is Taggert virus (TAGV) viral ovarian tumor domain protease (vOTU) (Taggert virus (TAGV)). As to the kind of experiment: ITC.

In turn, “ubiquitin (Ub), wild type (from UniProt P0CG48 1-76) (natural protein)” had a dH of -4.68 kcal/mol and a stoichiometry N of 1.34 sites.
